For test [1], the target named is T1, hAng2-biotin (R&D, Catalog No. BT623B/CF) (human, UniProt O15123 68-496, limits assumed, biotinylated).
T1 construct: also called Ang2-Bio (R&D, Catalog No. BT623B/CF); Recombinant Biotinylated hAngiopoietin-2 protein (R&D)
T1 sequence (looked up): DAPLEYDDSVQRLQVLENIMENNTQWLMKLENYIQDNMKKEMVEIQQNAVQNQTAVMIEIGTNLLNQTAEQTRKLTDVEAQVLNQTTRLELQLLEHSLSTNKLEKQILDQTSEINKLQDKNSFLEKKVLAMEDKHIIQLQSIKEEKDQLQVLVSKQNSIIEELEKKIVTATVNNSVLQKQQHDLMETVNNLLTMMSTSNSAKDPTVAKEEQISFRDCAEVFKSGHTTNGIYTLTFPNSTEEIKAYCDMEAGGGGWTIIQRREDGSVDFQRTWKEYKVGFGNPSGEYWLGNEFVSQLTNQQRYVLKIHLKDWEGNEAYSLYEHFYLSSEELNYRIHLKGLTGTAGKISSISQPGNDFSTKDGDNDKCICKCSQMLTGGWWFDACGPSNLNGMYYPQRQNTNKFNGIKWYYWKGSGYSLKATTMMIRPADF
As to the kind of experiment: blocking ELISA: hTie2 coated, binding of biotinylated hAng2; fit value printed for the flat curve of the negative control, unit from the axis. The protocol:
(§1) The antigen-antibody mixture obtained as described above was incubated in the microplate for 90 min and washed three times with PBS, and the supernatant was discarded. 100 μL of Avidin-HRP (Invitrogen) diluted in a 1:10000 ratio was added to each well, incubated at room temperature for 30 min, and washed six times with PBS. A TMB chromogenic solution (solarbio) was added to the plate at 100 μL/well for color development for 1 min, and the reaction was stopped by adding a stop solution (Solarbio) at 100 μL/well.
On the technique in general: In an ELISA, binding on a coated surface is turned into a signal by an enzyme label.

The target in test [2] is T1, hAng2-biotin (R&D, Catalog No. …). The test is described as above. The protocol:
as §1
This is another data set of the same source.

Test [3] concerns the target T2, biotin-labeled VEGF A165 (ACRO, Catalog No. VE5-H8210) (human, UniProt P15692-4 27-191, biotin-labeled).
T2 construct: also called hVEGF A
Nature of the test: blocking ELISA: biotin VEGF A165 captured on streptavidin, binding of VEGFR-Fc; fit value printed for the flat curve of the negative control, unit from the axis. Here is the method:
(§2) SA (Thermo, Catalog No. 21125) was diluted to 1 μg/mL, and 100 μL/well of SA was plated in a microplate at 4° C. overnight. The plate was washed 3 times with PBST and blocked with 3% BSA for 1.5 h. […] The plate was washed 6 times with PBST, the color development was performed with TMB for 5 min, and OD450 nm was read after stopping.

Test [4] addresses T3, hAng2-Fc (Beijing Sino Biological, Catalog No. 10691-H02H) (human, UniProt O15123 19-496).
T3 construct: Bought fusion protein; also called human Ang2-hFc; recombinant hAng2-Fc protein; not shown: human Fc of the bought fusion protein
T3 sequence (looked up): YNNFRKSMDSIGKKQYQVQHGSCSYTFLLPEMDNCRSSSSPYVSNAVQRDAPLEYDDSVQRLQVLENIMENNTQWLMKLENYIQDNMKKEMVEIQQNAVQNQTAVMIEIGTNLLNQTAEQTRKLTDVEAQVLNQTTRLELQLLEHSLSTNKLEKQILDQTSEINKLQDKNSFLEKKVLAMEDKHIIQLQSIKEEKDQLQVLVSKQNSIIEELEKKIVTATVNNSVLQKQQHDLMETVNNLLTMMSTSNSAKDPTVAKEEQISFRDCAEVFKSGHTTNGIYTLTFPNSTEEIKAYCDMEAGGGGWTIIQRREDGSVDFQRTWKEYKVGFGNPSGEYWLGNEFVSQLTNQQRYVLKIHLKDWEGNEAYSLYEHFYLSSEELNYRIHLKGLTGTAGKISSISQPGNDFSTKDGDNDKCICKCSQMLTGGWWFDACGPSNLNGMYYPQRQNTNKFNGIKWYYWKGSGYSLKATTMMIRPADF
Nature of the test: flow cytometry blocking: binding of hAng2-Fc to Tie2 on 293-Tie2 cells, Mean PE-A; fit value printed for the flat curve of the negative control, unit from the axis. Here is the method:
(§3) The cells were centrifuged at 300 g for 5 min. The supernatant was discarded. Then the cells were resuspended in an antigen-antibody mixture. The mixture was incubated on ice for 30 min. PBS was added at 100 μL/well. After centrifugation at 300 g for 5 min, the mixture was washed once with PBS. 100 μL of goat anti-human IgG-PE (SouthernBiotech) diluted in a 1:200 ratio was added to each well. After a 20-min ice bath, PBS was added at 100 μL/well. The mixture was centrifuged at 300 g for 5 min, prior to one wash with PBS. The cells were resuspended with 100 μL of PBS. The cell fluorescence signal values were measured by a flow cytometer (BD Biosciences). According to MFI, the concentration-dependent curve was fitted with GraphPad.
For orientation: Flow cytometry measures light scatter and fluorescence of single cells or particles in a stream.

Test [5] addresses T3, hAng2-Fc (Beijing Sino Biological, …). As to the kind of experiment: flow cytometry blocking: binding of hAng2-Fc to Tie2 on 293-Tie2 cells, Mean-PE-A; fit value printed for the flat curve of the negative control, unit from the axis. Here is the method: as §3
Test [6] deals with T4, human VEGF165 (R&D) (human, UniProt P15692-4 27-191).
T4 construct: Antigen of the ForteBio assay
T4 sequence (P15692 other isoform, or with tags, fused parts or gaps limits assumed): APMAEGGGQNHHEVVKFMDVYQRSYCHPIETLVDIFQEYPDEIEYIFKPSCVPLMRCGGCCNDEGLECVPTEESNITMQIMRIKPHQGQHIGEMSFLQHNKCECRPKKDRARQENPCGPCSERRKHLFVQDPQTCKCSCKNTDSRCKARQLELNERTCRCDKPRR
Nature of the test: BLI (ForteBio), bivalent binding. Background: Biolayer interferometry detects binding as a change in optical thickness at a sensor tip.

In test [7] the target is T5, human Ang2 (human, UniProt O15123 19-496, limits assumed).
T5 construct: Antigen of the ForteBio assay; also called human Ang2 (Beijing Sino Biological)
T5 sequence (looked up): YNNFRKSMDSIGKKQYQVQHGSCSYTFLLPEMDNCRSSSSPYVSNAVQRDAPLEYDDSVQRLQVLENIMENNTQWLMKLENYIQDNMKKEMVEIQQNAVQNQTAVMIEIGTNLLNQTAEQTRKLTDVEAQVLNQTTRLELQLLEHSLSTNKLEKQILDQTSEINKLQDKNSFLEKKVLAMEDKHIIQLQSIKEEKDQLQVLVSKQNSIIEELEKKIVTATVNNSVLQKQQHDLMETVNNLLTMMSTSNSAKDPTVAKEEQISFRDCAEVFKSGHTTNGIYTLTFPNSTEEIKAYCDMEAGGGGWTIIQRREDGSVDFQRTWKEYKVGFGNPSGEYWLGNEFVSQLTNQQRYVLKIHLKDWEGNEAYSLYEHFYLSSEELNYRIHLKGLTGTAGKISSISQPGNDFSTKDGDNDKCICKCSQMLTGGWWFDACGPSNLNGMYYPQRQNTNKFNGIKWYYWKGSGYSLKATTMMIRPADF
Nature of the test: BLI (ForteBio), bivalent binding.

For test [8], the target named is T5, human Ang2. Nature of the test: BLI (ForteBio), monovalent binding.
The target of test [9] is T5, human Ang2. Nature of the test: BLI (ForteBio), bivalent binding; * dissociation constant exceeding ForteBio detection limits.
For test [10], the target named is T2, biotin-labeled VEGF A165 (ACRO, Catalog …). Nature of the test: blocking ELISA: biotin VEGF A165 captured on streptavidin, binding of VEGFR-Fc blocked; value printed as EC50 in the table under the curves, unit from the axis. Here is the method: as §2
Test [11] addresses T4, human VEGF165 (R&D). As to the kind of experiment: BLI (ForteBio), monovalent binding.
The target of test [12] is T1, hAng2-biotin (R&D, Catalog No. …). Nature of the test: blocking ELISA: hTie2 coated, binding of biotinylated hAng2 blocked; unit from the axis. Here is the method:
as §1

Test [13] deals with T3, hAng2-Fc (Beijing Sino Biological, …). As to the kind of experiment: flow cytometry blocking: binding of hAng2-Fc to Tie2 on 293-Tie2 cells blocked, Mean PE-A; unit from the axis. Here is the method:
as §3

Test [14] has the same target. Nature of the test: flow cytometry blocking: binding of hAng2-Fc to Tie2 on 293-Tie2 cells blocked, Mean-PE-A; unit from the axis. Here is the method:
as §3

Bounds are passed on as bounds.

From patent publication US20260274933A1 (Innovent, published 2026) come the findings set out here.

T2 sequence (P15692 other isoform, or with tags, fused parts or gaps limits assumed): as the sequence (P15692 other isoform, or with tags, fused parts or gaps limits assumed) above

B1: IgG (antibody, V domains shown)
VH: EVRLLESGGGLVQPGGSLRLSCAASGFTFSNYAMGWVRQAPGKGLEWVSAISGSGGSTYYADSVKGRFTTSRDDSKNALYLQMNSLRAEDTAVYYCARGGPGWYAADVWGQGTTVTVSS
VL: DIQMTQSPSSLSASVGDRVTITCRASQSISSYLNWYQQKPGKAPKLLIYAASSLQSGVPSRFSGSGSGTDFTLTISSLQPEDFATYYCQQADLPAFAFGGGTKVEIKR
notes: also called Negative control IgG
In general, IC50 refers to the midpoint of a concentration-inhibition curve. Read a low IC50 as greater potency in that assay. As usually defined, the EC50 is the concentration at which the effect is half-maximal. Low readings indicate greater potency, high ones weaker potency. On to B1, for which the IC50 was roughly 0.596 nM in test [1], roughly 6.79 nM in [2], roughly 0.019 nM in [4] and roughly 10.1 nM in [5]. The same molecule came in with an EC50 in [3] of 0.00208 mg/L.

B2: LA42F8.5 (VHH)
VHH: EVQLLESGGGLVQPGGSLRLSCAASGFNLDYYPIGWFRQAPGKGLEGVSCISSVGSTNYADSVKGRFTISRDNSKNTVYLQMNSLRAEDTAVYYCAADPLCSALILPPPFLSWGQGTQVTVSS
notes: also called humanized LA42F8
What is called koff is the first-order rate constant of dissociation. Read a high koff as fast dissociation. Usually kon stands for a measure of how fast the partners come together. A low value points to slow association. In [6], B2 had a Kd of 0.2 nM, a koff of 0.000213 s⁻¹ and a kon of 1.06e+06 M⁻¹ s⁻¹.

B3: LA24C11 (Ang2 VHH) (VHH)
VHH: QVQLVESGGGLVQPGGSLRLSCAASGFALDYYAIGWFRQAPGKEREGVSCISSGDGSTYYADSVKGRFTISRDNAKNTVYLQMNSLKPEDTAVYYCATDSRGDDVACEGLRRNEYDYWGQGTQVTVSS
notes: Alpaca anti-Ang2 VHH
As to B3, the Kd in test [7] came to 0.867 nM; in test [8] it was 2.18 nM. Moreover, the values for the kon in [7] and in test [8] were 231000 M⁻¹ s⁻¹ and 761000 M⁻¹ s⁻¹, respectively. The koff in test [8] was 0.00166 s⁻¹; in [9] it was no more than 0.0002 s⁻¹.

B4: BI-anti-VEGF (VHH)
VHH: DVQLVESGGGLVQPGGSLRLSCAASGRTFSSYSMGWFRQAPGKEREFVVAISKGGYKYDAVSLEGRFTISRDNAKNTVYLQINSLRPEDTAVYYCASSRAYGSSRLRLADTYEYWGQGTLVTVSS
notes: also called Positive control antibody BI-anti-VEGF
Consider B4, for which the EC50 in test [10] was determined as 0.034 mg/L.

B5: LA46E11 (VEGFA VHH) (VHH)
VHH: QVQLEESGGGLVQPGGSLRLSCVASGSIFSINAMGWHRQAPGSQRELVATMIGGSSTFYADSVNGRFTISRDNAKNTVYLQMNSLKLEDTAVYYCYADVTGRSGTSIWNKRDDYWGQGTLVTVSS
notes: Alpaca anti-VEGF A VHH; also called LA46E11 supernatant
Turning to B5, in test [6], the Kd is 1.11 nM, the koff came to 0.0002 s⁻¹ and the kon is 179000 M⁻¹ s⁻¹. Also, in [11], the Kd worked out at 7.74 nM, the koff worked out at 0.00142 s⁻¹ and the kon amounted to 184000 M⁻¹ s⁻¹. This molecule yielded an EC50 in [10] of 0.344 mg/L.

B6: LA46E11.8 (VEGFA VHH) (VHH)
VHH: EVQLLESGGGLVQPGGSLRLSCAASGSIFSINAMGWHRQAPGKQRELVATMIGGSSTFYAESVQGRFTISRDNSKNTVYLQMNSLRAEDTAVYYCYADVTGRSGTSIWNKRDDYWGQGTQVTVSS
notes: Humanized anti-VEGF A VHH; also called humanized LA46E11
Turning to B6, in test [6], the Kd amounted to 0.788 nM, the koff turned out to be 0.000332 s⁻¹ and the kon was 421000 M⁻¹ s⁻¹.

B7: IEX04-008 (bispecific antibody)
chain: EVQLLESGGGLVQPGGSLRLSCAASGSIFSINAMGWHRQAPGKQRELVATMIGGSSTFYAESVQGRFTISRDNSKNTVYLQMNSLRAEDTAVYYCYADVTGRSGTSIWNKRDDYWGQGTQVTVSSGGGGSGGGGSEVQLLESGGGLVQPGGSLRLSCAASGSIFSINAMGWHRQAPGKQRELVATMIGGSSTFYAESVQGRFTISRDNSKNTVYLQMNSLRAEDTAVYYCYADVTGRSGTSIWNKRDDYWGQGTQVTVSSGGGGSGGGGSEVQLLESGGGLVQPGGSLRLSCAASGFALDYYAIGWFRQAPGKGLEGVSCISSGEGSTYYADSVKGRFTISRDNSKNTVYLQMNSLRAEDTAVYYCATDSRGDDVACEGLRRNEYDYWGQGTLVTVSS
notes: also called LA46E11.8 (VHH) + linker + LA46E11.8 (VHH) + LA24C11.10
For the molecule B7, the results for the IC50 in [12] and in test [13] were 13.5 nM and 0.554 nM, respectively.

B8: IEX04-012 (bispecific antibody)
chain: DIQLTQSPSSLSASVGDRVTITCSASQDISNYLNWYQQKPGKAPKVLIYFTSSLHSGVPSRFSGSGSGTDFTLTISSLQPEDFATYYCQQYSTVPWTFGCGTKVEIKGGGGSGGGGSGGGGSGGGGSEVQLVESGGGLVQPGGSLRLSCAASGYDFTHYGMNWVRQAPGKCLEWVGWINTYTGEPTYAADFKRRFTFSLDTSKSTAYLQMNSLRAEDTAVYYCAKYPYYYGTSHWYFDVWGQGTLVTVSSGGGGSGGGGSGGGGSEVQLLESGGGLVQPGGSLRLSCAASGFALDYYAIGWFRQAPGKGLEGVSCISSGEGSTYYADSVKGRFTISRDNSKNTVYLQMNSLRAEDTAVYYCATDSRGDDVACEGLRRNEYDYWGQGTLVTVSS
notes: also called Ranibizumab scFv containing disulfide bond mutations + linker + LA24C11.10; recombinant anti-VEGF A/anti-Ang2 bispecific antibody
As for B8, the values for the IC50 in test [12] and in [14] were 7.1 nM and 0.685 nM, respectively.
